Measured values: PMC9482650, “Quantitative fragmentomics allow affinity mapping of interactomes” (Nature Communications, 2022)

Legend:
Test in all cases: holdup assay
Design in all cases: key: below the threshold = too weak to quantify, mostly under pKd 3.1 to 4
IL16_1, Q14005 = target: IL16_1, Q14005
DLG1_3, Q12959 = target: DLG1_3, Q12959
ARHGEF12, Q9NZN5-2 = target: ARHGEF12, Q9NZN5-2
LDB3, O75112 = target: LDB3, O75112
DLG4_3, P78352 = target: DLG4_3, P78352
NHERF4_4, Q86UT5 = target: NHERF4_4, Q86UT5
NHERF4_4, Q86UT5, sequence (Q86UT5 464-550): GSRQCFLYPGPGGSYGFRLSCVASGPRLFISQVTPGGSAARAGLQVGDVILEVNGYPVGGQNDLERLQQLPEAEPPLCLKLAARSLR

SCRIB_1, Q14160 = target: SCRIB_1, Q14160
SCRIB_1, Q14160, sequence (Q14160 718-814): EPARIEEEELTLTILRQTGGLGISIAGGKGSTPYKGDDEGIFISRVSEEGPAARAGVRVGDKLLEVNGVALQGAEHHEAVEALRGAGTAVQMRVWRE

LRRC7, Q96NW7 = target: T1, LRRC7, Q96NW7
T1 sequence (Q96NW7 1440-1537, limits assumed, looked up): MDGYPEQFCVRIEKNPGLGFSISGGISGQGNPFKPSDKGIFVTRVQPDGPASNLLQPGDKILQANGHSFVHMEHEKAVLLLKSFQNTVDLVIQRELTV

DLG1_2, Q12959 = target: DLG1_2, Q12959
DLG1_2, Q12959, sequence (Q12959 314-412): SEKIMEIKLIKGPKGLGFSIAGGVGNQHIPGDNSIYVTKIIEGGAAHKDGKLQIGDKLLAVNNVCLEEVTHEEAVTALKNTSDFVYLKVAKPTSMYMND

Inadl_3, Q8NI35 = target: Inadl_3, Q8NI35
Inadl_3, Q8NI35, sequence (Q8NI35 359-469): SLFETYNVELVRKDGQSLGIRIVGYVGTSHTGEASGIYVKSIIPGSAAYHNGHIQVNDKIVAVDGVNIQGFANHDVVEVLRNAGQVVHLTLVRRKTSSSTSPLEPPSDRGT

MAST2, Q6P0Q8 = target: MAST2, Q6P0Q8
MAST2, Q6P0Q8, sequence (Q6P0Q8 1099-1202): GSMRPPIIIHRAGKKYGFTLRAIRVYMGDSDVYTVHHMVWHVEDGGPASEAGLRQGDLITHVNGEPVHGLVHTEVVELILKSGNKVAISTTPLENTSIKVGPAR

SCRIB_3, Q14160 = target: SCRIB_3, Q14160
SCRIB_3, Q14160, sequence (Q14160 999-1103): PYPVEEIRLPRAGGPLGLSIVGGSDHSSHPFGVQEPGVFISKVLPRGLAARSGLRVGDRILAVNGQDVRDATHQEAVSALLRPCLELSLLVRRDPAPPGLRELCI

TIAM2, Q8IVF5 = target: T2, TIAM2, Q8IVF5
T2 sequence (Q8IVF5 885-986, limits assumed, looked up): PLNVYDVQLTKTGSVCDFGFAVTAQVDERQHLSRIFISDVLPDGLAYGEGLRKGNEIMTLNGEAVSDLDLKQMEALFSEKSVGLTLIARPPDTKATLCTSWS

DLG4_2, P78352 = target: DLG4_2, P78352
DLG4_2, P78352, sequence (P78352 155-259): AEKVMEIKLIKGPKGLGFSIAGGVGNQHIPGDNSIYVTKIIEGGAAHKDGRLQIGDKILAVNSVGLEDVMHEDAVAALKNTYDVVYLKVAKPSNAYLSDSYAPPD

SNTG2, Q9NY99 = target: T3, SNTG2, Q9NY99
T3 sequence (Q9NY99 68-166, limits assumed, looked up): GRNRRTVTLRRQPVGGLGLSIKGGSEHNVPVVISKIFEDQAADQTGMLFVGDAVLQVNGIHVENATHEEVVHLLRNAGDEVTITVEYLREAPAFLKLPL

GRASP, Q7Z6J2 = target: GRASP, Q7Z6J2
GRASP, Q7Z6J2, sequence (Q7Z6J2 96-193): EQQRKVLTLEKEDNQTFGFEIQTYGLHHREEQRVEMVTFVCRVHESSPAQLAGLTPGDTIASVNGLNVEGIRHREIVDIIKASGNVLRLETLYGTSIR

IL16_4, Q14005 = target: IL16_4, Q14005
IL16_4, Q14005, sequence (Q14005 1229-1329): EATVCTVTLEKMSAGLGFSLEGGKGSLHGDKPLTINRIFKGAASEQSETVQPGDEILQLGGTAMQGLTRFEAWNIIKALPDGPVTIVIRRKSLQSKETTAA

PICK1, Q9NRD5 = target: PICK1, Q9NRD5
PICK1, Q9NRD5, sequence (Q9NRD5 17-115): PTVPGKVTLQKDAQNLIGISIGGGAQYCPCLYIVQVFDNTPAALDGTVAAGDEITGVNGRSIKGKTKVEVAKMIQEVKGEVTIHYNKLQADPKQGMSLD

NHERF3_3, Q5T2W1 = target: T4, NHERF3_3, Q5T2W1
T4 sequence (Q5T2W1 238-333, limits assumed, looked up): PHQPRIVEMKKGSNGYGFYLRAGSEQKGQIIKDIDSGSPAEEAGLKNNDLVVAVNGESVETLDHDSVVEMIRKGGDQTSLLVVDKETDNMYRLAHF

PARD3B_1, Q8TEW8 = target: T5, PARD3B_1, Q8TEW8
T5 sequence (Q8TEW8 196-299, limits assumed, looked up): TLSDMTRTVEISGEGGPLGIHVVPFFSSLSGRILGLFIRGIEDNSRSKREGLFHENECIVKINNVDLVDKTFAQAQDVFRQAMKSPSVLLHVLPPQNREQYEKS

NHERF3_1, Q5T2W1 = target: T6, NHERF3_1, Q5T2W1
T6 sequence (Q5T2W1 4-100, limits assumed, looked up): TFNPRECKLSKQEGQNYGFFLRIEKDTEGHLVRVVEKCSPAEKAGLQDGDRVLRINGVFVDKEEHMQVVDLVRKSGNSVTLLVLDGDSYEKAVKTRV

PTPN3, P26045 = target: PTPN3, P26045
PTPN3, P26045, sequence (P26045 505-587): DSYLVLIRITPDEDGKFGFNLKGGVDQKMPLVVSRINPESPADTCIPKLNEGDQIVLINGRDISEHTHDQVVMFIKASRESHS

LAP2, Q96RT1 = target: LAP2, Q96RT1
LAP2, Q96RT1, sequence (Q96RT1 other isoform, or with tags, fused parts or gaps): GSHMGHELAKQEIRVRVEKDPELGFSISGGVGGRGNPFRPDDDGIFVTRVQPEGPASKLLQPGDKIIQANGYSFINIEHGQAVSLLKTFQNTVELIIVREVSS

LIMK2, P53671 = target: LIMK2, P53671
LIMK2, P53671, sequence (P53671 143-248): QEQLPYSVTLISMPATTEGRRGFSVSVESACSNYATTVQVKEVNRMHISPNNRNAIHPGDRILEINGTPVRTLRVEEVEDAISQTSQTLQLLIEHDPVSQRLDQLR

TJP1_3, Q07157 = target: TJP1_3, Q07157
TJP1_3, Q07157, sequence (Q07157 416-512): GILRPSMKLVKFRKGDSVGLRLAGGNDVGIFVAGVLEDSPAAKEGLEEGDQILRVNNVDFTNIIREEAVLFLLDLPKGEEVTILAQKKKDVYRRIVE

GRIP2_6, Q9C0E4 = target: GRIP2_6, Q9C0E4
GRIP2_6, Q9C0E4, sequence (Q9C0E4 648-740): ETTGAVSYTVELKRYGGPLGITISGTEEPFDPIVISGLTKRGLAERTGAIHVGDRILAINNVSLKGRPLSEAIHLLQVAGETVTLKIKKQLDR

Inadl_1, Q8NI35 = target: Inadl_1, Q8NI35
Inadl_1, Q8NI35, sequence (Q8NI35 113-229): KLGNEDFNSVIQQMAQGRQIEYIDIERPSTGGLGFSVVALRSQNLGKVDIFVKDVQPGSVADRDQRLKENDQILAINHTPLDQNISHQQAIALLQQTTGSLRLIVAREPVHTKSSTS

MPP6, Q9NZW5 = target: T7, MPP6, Q9NZW5
T7 sequence (Q9NZW5 125-219, limits assumed, looked up): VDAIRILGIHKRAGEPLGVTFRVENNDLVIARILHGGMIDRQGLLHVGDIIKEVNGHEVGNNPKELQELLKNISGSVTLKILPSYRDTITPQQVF

PARD3_3, Q8TEW0 = target: PARD3_3, Q8TEW0
PARD3_3, Q8TEW0, sequence (Q8TEW0 582-685): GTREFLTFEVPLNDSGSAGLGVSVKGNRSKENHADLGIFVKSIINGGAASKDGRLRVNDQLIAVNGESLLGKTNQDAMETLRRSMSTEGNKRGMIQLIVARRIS

SNTG1, Q9NSN8 = target: T8, SNTG1, Q9NSN8
T8 sequence (Q9NSN8 52-150, limits assumed, looked up): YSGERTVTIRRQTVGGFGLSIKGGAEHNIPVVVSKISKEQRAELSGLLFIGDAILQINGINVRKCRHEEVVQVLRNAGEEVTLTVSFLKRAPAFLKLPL

[1] = plain residues with an end cap or a label only (N-terminal biotin on a linker: ado-ado)
[2] = modified: phospho on T at position -2 from the C-terminal residue

Measured: pKd

ARHGEF12, Q9NZN5-2, sequence (Q9NZN5 other isoform, or with tags, fused parts or gaps): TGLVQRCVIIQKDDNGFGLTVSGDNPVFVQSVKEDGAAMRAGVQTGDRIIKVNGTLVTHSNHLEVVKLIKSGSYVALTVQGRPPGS
DLG1_3, Q12959, sequence (Q12959 457-571): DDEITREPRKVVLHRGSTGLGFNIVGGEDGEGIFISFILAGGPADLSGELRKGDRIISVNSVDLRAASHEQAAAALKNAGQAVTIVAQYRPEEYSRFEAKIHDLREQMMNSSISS
DLG4_3, P78352, sequence (P78352 306-403): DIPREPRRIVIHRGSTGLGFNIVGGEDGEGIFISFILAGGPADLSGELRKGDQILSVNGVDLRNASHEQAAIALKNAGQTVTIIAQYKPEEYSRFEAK
LDB3, O75112, sequence (O75112 1-94): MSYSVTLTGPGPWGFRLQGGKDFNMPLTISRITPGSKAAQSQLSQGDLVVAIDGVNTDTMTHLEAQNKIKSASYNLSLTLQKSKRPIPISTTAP
IL16_1, Q14005, sequence (Q14005 210-306): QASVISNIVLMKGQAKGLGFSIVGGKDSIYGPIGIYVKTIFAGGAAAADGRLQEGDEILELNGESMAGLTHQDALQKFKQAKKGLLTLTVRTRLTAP

YNNCLEILRV [DCAF7, P61962]
below the threshold: IL16_1, Q14005; [1] | DLG1_3, Q12959; [1] | ARHGEF12, Q9NZN5-2; [1] | LDB3, O75112; [1] | DLG4_3, P78352; [1] | NHERF4_4, Q86UT5; [1] | SCRIB_1, Q14160; [1] | LRRC7, Q96NW7; [1] | DLG1_2, Q12959; [1] | Inadl_3, Q8NI35; [1] | SCRIB_3, Q14160; [1] | DLG4_2, P78352; [1] | SNTG2, Q9NY99; [1] | IL16_4, Q14005; [1] | PICK1, Q9NRD5; [1] | NHERF3_3, Q5T2W1; [1] | NHERF3_1, Q5T2W1; [1] | PTPN3, P26045; [1] | LAP2, Q96RT1; [1] | LIMK2, P53671; [1] | TJP1_3, Q07157; [1] | GRIP2_6, Q9C0E4; [1] | Inadl_1, Q8NI35; [1] | MPP6, Q9NZW5; [1] | SNTG1, Q9NSN8; [1]
4.04: TIAM2, Q8IVF5; [1]
4.01: PARD3B_1, Q8TEW8; [1]
4.53: MAST2, Q6P0Q8; [1]
3.97: PARD3_3, Q8TEW0; [1]
3.9: GRASP, Q7Z6J2; [1]

SKPTRRETEV [HPV35-E6_-2P, P27228]
3.98: PTPN3, P26045; [2]
3.78: MPP6, Q9NZW5; [2]
3.86: NHERF4_4, Q86UT5; [2]
3.56: DLG4_2, P78352; [2]
below the threshold: IL16_1, Q14005; [2] | DLG1_3, Q12959; [2] | ARHGEF12, Q9NZN5-2; [2] | LDB3, O75112; [2] | DLG4_3, P78352; [2] | SCRIB_1, Q14160; [2] | LRRC7, Q96NW7; [2] | DLG1_2, Q12959; [2] | Inadl_3, Q8NI35; [2] | MAST2, Q6P0Q8; [2] | SCRIB_3, Q14160; [2] | TIAM2, Q8IVF5; [2] | SNTG2, Q9NY99; [2] | GRASP, Q7Z6J2; [2] | IL16_4, Q14005; [2] | PICK1, Q9NRD5; [2] | NHERF3_3, Q5T2W1; [2] | PARD3B_1, Q8TEW8; [2] | NHERF3_1, Q5T2W1; [2] | LAP2, Q96RT1; [2] | LIMK2, P53671; [2] | TJP1_3, Q07157; [2] | GRIP2_6, Q9C0E4; [2] | Inadl_1, Q8NI35; [2] | PARD3_3, Q8TEW0; [2] | SNTG1, Q9NSN8; [2]

LGRSTPQSEV [DGKH, Q86XP1]
4.01: DLG1_2, Q12959; [1]
3.8: SCRIB_3, Q14160; [1]
below the threshold: IL16_1, Q14005; [1] | DLG1_3, Q12959; [1] | LDB3, O75112; [1] | DLG4_3, P78352; [1] | NHERF4_4, Q86UT5; [1] | LRRC7, Q96NW7; [1] | Inadl_3, Q8NI35; [1] | TIAM2, Q8IVF5; [1] | SNTG2, Q9NY99; [1] | IL16_4, Q14005; [1] | PICK1, Q9NRD5; [1] | NHERF3_3, Q5T2W1; [1] | PARD3B_1, Q8TEW8; [1] | NHERF3_1, Q5T2W1; [1] | LAP2, Q96RT1; [1] | LIMK2, P53671; [1] | TJP1_3, Q07157; [1] | GRIP2_6, Q9C0E4; [1] | Inadl_1, Q8NI35; [1] | PARD3_3, Q8TEW0; [1]
3.71: MPP6, Q9NZW5; [1]
4.12: PTPN3, P26045; [1]
4.18: ARHGEF12, Q9NZN5-2; [1]
4.85: MAST2, Q6P0Q8; [1]
3.51: GRASP, Q7Z6J2; [1]
3.77: SCRIB_1, Q14160; [1]
3.96: SNTG1, Q9NSN8; [1]
3.92: DLG4_2, P78352; [1]
